The values below come from patent US20220235138A1, “CAR-T CELLS TARGETING IL-1RAP AND THEIR USE IN ACUTE MYELOID LEUKEMIA (AML)” (ETABLISSEMENT FRANCAIS DU SANG, priority 2019, published 2022).

The target of assay [1] is recombinant IL-1RAP biotinylated protein (UniProt Q9NPH3). In words: flow cytometry, serial dilution of biotinylated IL-1RAP on CAR-transduced primary T cells, anti-biotin antibody; single experiment. In general terms: In flow cytometry, cells or beads pass a laser one at a time.
Assay [2] has the same target. In words: flow cytometry, biotinylated IL-1RAP (1.25 ng) on CAR-transduced CEM cells, anti-biotin antibody.
Assay [3] shares this target. In words: flow cytometry, biotinylated IL-1RAP (0.15 ng) on CAR-transduced primary T cells, anti-biotin antibody.
Assay [4] shares this target. In words: flow cytometry, serial dilution of biotinylated IL-1RAP on CAR-transduced CEM cells, anti-biotin antibody; single experiment.
Assay [5] addresses IL-1RAP expressed at the cell surface of human cells (human), Q9NPH3. The assay is described as follows: flow cytometry on monocytes of healthy donors' peripheral blood (2/5) and bone marrow (3/5); RFI against isotype. The following applies: remark: other sources report otherwise.

Chain of recombinant IL-1RAP biotinylated protein (Q9NPH3 21-359 limits assumed): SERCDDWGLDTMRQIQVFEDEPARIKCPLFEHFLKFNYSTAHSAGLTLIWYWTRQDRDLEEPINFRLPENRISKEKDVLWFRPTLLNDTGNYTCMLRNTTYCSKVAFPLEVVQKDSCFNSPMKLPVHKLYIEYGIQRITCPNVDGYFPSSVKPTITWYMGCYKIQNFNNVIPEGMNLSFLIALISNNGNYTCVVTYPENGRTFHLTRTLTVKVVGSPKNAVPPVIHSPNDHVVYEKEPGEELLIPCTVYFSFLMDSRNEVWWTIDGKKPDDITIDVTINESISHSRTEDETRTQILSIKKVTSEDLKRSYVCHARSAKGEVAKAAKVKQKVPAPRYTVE
Chain of IL-1RAP expressed at the cell surface of human cells (human), Q9NPH3 (Q9NPH3 21-570): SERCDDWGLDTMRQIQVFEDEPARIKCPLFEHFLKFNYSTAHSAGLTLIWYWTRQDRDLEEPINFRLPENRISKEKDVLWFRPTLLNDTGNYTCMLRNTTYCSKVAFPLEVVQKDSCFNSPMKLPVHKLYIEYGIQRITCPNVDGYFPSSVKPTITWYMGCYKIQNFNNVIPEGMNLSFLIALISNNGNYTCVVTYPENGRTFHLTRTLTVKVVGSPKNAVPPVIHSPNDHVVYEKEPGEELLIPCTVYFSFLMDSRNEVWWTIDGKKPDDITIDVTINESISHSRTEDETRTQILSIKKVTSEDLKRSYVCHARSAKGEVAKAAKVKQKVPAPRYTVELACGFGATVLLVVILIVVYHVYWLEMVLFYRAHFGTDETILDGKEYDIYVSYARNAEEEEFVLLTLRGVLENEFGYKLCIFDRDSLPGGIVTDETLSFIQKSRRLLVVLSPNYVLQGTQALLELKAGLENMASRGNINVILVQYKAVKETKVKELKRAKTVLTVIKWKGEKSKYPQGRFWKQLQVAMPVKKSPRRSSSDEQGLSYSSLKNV

B1: IL-1RAP CAR (scFv of #E3C3 with CD28-4.1BB-CD3z signaling chain) expressed at the surface of transduced CEM or primary T cells (protein, not shown: small tags and cut ends)
scFv: QVQLQQPGAELMMPGASVKVSCEASGYTFTDSWMHWVKQRPGQGLEWIGAIDPSDSYTTYNQKFTGKATLSVDESSNTAYMQLSSLTSEDSAVYYCARYYSGSNYISPFPYWGQGTLVTVSAGGSGGGGSGGGGSVDMESQIQVFVFVFLWLSGVDGDIVMTQSHKFMSTSVGDRVTITCKASLDVSTAVAWYQQKPGQSPKLLIYSASYRYTGVPDRFTGSGSGTDFTFTISSVQAEDLAVYYCQQHYSPPFTFGSGTNLEIK
With B1, the values for the amount of recombinant protein required for recruiting maximum of cells in assay [1] and in assay [4] were 0.15 ng and 1.25 ng, respectively. Further, the maximum percentage of Biotin+/CD19+ cells in assay [2] was determined as 85.8%; in assay [3], 68.5%.

B2: mouse anti-hIL-1RAP monoclonal antibody, clone #E3C3 (antibody, V domains shown)
VH: QVQLQQPGAELMMPGASVKVSCEASGYTFTDSWMHWVKQRPGQGLEWIGAIDPSDSYTTYNQKFTGKATLSVDESSNTAYMQLSSLTSEDSAVYYCARYYSGSNYISPFPYWGQGTLVTVSA
VL: DIVMTQSHKFMSTSVGDRVTITCKASLDVSTAVAWYQQKPGQSPKLLIYSASYRYTGVPDRFTGSGSGTDFTFTISSVQAEDLAVYYCQQHYSPPFTFGSGTNLEIK
As for B2, the RFI in assay [5] was < 2.
